The record followed here is a protein production outcome set (Wang et al. 2014).

The data set is described as follows: label from the status in PepcDB records.

As to “YHDETAQDEEDRVLIHFNVRDIKIGPECHDVQPPEGRSRDGLLTVNLREGGRLHLCAETKDDALAWKTALLEANSTPVRVYSPYQDYYEVVPPNAHEATYVRSYYGPPYAGPGVTHVIVREDPCYSAGAPLAMGMLAGAATGAALGSLMWSPCWF”, the protein production result is “failed”. Take “YKGKNLIMIQVEALQQFVINSKVENQEITPNLNRWINKSLYFNNFFYQVSSGNTSDAEFLANNSFYPAASGAAYYLYAGNTYSSLAKEMNDNNYYTAVLHGYKEGFWNRNVMYKAEKFKDFFGEKSFNINENVGLGLSDKSFLNQSFNKLKSFSSPYYSFIITLSSHYPYDDTKGYGDFNVGDYEGTLLGNYLKGIHYTDAQLGTFLDKLEKSGIMDNSVVILYGDHYAIPKDKINDLYDFENIKNPTDLDWYELQKVPMLIHFPKDQYKGINSEYSGQIDLYPTIANMFNLPQNYMLGTDLFASKNRNVIFRNGSFTDGNVFYVSWTNTYYDIKTGS”: the protein production entry is on record as “failed”.

Take “YRYDEQLNLCLERLSSGKDKNKSVLQNKYVRCSVRAEVRHLRRVLCHRLMLNPQHVQLLFDNEVLPDHMTMKQIWLSRWFGKPSPLLLQYS”: the protein production entry was “failed”. The result for “YSGSQAPGGIQEIVAMSPELDTYSITKRVKEVLTDNNLGQRLFGESILGLTQGSVSDLLSRPKPWHKLSLKGREPFVRMQLWLNDPHNVEKLRDMKKL” reads “not failed”; that for “YTEPQIDDTNDGIVFSELTHPLIADAVANDFSLSQNILLTGSNASGKSTFMKSIAINIILASAIQTVTASKFVYQPGIVFTSMANADDVLSGDSYFMAELKSIKRIVEIPDNQKIYCFIDEIFKGTNTTERIAASESVLSFLHEKSNFRVIAATHDIELAELLKQRYENYHFNEVIENNNIHFDYKIKPGKANTRNAIELLKITSFPAKIYERAKDNVSN”, “failed”.
